In article PMC4900677:

Tested on: T1, IFI16 (Homo sapiens), Q16666-2
T1 sequence: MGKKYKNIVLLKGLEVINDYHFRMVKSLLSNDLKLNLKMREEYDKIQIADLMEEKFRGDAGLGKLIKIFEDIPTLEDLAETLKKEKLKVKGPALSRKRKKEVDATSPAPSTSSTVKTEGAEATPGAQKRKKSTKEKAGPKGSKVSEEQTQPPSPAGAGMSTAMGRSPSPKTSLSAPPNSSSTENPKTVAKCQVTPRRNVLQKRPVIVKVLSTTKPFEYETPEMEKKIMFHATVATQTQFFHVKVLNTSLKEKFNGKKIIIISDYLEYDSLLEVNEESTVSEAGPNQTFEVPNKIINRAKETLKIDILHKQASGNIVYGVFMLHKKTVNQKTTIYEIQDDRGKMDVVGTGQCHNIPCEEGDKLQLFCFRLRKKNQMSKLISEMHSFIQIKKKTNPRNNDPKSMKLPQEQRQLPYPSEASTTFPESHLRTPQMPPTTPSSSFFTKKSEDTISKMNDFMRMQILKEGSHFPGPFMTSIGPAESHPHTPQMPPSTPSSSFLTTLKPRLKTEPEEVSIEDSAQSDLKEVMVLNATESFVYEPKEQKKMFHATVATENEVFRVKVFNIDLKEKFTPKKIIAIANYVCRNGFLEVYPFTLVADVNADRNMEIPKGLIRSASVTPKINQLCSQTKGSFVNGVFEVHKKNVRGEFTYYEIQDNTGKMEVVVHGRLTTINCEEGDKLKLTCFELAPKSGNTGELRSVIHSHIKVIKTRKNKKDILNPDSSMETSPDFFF
Test: EMSA
Conditions: EMSA: 5 mM Tris-HCl pH 7.0, 1 mM EDTA, 50 mM KCl, 0.01% Triton X-100, 4 C, 15 min; gel 0.33x TBE (native PAGE with 50 mM KCl)

Sequence | binding signal (% bound at protein:DNA 4:1)
GGGTTAGGGTTAGGGTTAGGGTTAGGGTTAGGGTTAGGGTTAGGGTTAGGG (double strand) [DS HTEL] | 50
TTGGGGCGCTTATGGGGAGGGTGGGGAGGGTGGGGAAGGTGGGGAGGAGACT (double strand) [DS NHEIII] | 50
